This experiment addresses T1, Mouse ANGPTL4(26-410)-FLAG-His6-Avi (mouse, UniProt Q9Z1P8 24-410, biotin on the C-terminal Avi tag (BirA) where the protein is immobilised).
T1 sequence: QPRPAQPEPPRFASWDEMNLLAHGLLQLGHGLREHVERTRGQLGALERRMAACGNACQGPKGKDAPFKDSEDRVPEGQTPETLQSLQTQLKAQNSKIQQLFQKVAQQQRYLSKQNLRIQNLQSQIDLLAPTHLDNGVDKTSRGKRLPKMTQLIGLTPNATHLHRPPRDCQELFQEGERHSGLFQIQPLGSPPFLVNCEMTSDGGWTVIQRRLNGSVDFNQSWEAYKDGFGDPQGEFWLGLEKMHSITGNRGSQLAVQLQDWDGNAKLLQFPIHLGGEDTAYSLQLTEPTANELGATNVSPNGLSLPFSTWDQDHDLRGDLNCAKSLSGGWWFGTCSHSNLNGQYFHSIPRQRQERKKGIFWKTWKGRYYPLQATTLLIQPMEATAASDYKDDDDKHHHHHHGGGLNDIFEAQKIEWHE
The experiment is described as follows: Octet (ForteBio) kinetics, biotinylated antigen on streptavidin sensor, IgG in solution; Octet kinetics, mouse ANGPTL4 on the sensor, antibody up to 25 nM; run 1. On the technique in general: Biolayer interferometry detects binding as a change in optical thickness at a sensor tip.

The term Kd denotes the concentration at which binding is half-saturated. Read a low Kd as higher affinity. As a reminder, the koff is the rate constant with which the complex falls apart. Lower therefore signals a long-lived complex. What is called kon is the second-order rate constant of association. Low values mean slow association, high ones fast association.

B1: NEG276-LALA (antibody, human IgG1, kappa, L234A L235A)
heavy: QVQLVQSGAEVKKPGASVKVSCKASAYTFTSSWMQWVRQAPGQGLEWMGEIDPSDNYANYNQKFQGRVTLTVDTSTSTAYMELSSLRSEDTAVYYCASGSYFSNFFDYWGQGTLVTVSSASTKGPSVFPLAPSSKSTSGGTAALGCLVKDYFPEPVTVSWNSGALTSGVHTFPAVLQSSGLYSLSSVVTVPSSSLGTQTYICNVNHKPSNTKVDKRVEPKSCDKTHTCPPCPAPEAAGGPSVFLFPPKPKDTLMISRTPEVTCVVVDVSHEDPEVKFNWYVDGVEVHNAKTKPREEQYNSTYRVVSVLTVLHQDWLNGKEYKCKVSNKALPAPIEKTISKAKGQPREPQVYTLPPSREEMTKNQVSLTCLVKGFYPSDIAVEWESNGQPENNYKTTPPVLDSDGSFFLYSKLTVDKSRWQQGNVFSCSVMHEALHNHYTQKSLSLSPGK
light: EIVMTQSPATLSVSPGERATLSCKASQDIGSNLNWLQQKPGQAPRRLIYAVSNRGPGIPARFSGSRSGSEYTLTISSLQSEDFAVYYCLQYASSPWTFGQGTKVEIKRTVAAPSVFIFPPSDEQLKSGTASVVCLLNNFYPREAKVQWKVDNALQSGNSQESVTEQDSKDSTYSLSSTLTLSKADYEKHKVYACEVTHQGLSSPVTKSFNRGEC
B1: binding was characterised by a dissociation constant (Kd) of 8.25 nM, the koff was found to be 0.0029 s⁻¹ and the kon is 360000 M⁻¹ s⁻¹.

For the origin of these results see patent US20220213181A1 (Novartis, published 2022).
